Our source for the binding result and Kd values is patent publication US20230040568A1 (ALBERT EINSTEIN COLLEGE OF MEDICINE, published 2023).

Numbering of substitutions follows the chain as printed.

To fix the notation:
T1: HHLA2 expressed on cells (3T3 cell line expressing HHLA2; HHLA2/K562) (UniProt Q9UM44 23-414, limits assumed)
T1 construct: whole, on cells
T1 sequence (looked up): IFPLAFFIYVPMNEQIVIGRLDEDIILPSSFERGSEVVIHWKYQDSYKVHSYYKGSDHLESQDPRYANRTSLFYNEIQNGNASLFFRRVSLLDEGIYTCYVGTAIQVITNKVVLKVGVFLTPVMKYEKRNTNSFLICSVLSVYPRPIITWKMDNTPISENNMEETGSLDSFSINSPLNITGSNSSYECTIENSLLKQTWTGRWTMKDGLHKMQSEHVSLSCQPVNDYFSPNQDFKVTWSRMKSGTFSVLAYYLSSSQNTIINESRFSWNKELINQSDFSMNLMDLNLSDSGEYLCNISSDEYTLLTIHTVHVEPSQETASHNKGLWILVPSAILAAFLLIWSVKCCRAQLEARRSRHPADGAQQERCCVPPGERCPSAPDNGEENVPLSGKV

T2: HHLA2 EC-Ig-Fc fusion polypeptide (UniProt Q9UM44 23-344)
T2 construct: extracellular domain; also called whole extracellular part of HHLA2; not shown: Ig Fc part
T2 sequence (looked up): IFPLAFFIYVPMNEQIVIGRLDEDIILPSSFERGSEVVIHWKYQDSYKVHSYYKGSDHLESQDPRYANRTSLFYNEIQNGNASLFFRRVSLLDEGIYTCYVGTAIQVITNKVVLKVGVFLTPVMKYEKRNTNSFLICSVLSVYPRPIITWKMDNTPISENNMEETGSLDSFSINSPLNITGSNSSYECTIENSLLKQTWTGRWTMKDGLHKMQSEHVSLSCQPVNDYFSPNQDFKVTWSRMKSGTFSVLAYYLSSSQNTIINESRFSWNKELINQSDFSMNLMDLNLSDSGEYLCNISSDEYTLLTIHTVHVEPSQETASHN

B1: KIR3DL3 expressed on cells (3T3 cell line expressing KIR3DL3; KIR3DL3+ NK92 cells; primary KIR3DL3+ NK cells and CD8 T cells) (receptor)
chain: QDKPFLSAWPGTVVSEGQHVTLQCRSRLGFNEFSLSKEDGMPVPELYNRIFRNSFLMGPVTPAHAGTYRCCSSHPHSPTGWSAPSNPVVIMVTGVHRKPSLLAHPGPLVKSGETVILQCWSDVRFERFLLHREGITEDPLRLVGQLHDAGSQVNYSMGPMTPALAGTYRCFGSVTHLPYELSAPSDPLDIVVVGLYGKPSLSAQPGPTVQAGENVTLSCSSRSLFDIYHLSREAEAGELRLTAVLRVNGTFQANFPLGPVTHGGNYRCFGSFRALPHAWSDPSDPLPVSVTGNSRNLHVLIGTSVVIIPFAILLFFLLHRWCANKKNAVVMDQEPAGNRTVNREDSDEQDPQEVTYAQLNHCVFTQRKITRPSQRPKTPPTDTSV
notes: also called KIR3DL3-expressing 3T3 cells; KIR3DL3 WT
B2: KIR3DL3 D0D1D2-Ig fusion polypeptide (Fc fusion)
chain: QDKPFLSAWPGTVVSEGQHVTLQCRSRLGFNEFSLSKEDGMPVPELYNRIFRNSFLMGPVTPAHAGTYRCCSSHPHSPTGWSAPSNPVVIMVTGVHRKPSLLAHPGPLVKSGETVILQCWSDVRFERFLLHREGITEDPLRLVGQLHDAGSQVNYSMGPMTPALAGTYRCFGSVTHLPYELSAPSDPLDIVVVGLYGKPSLSAQPGPTVQAGENVTLSCSSRSLFDIYHLSREAEAGELRLTAVLRVNGTFQANFPLGPVTHGGNYRCFGSFRALPHAWSDPSDPLPVSVTGNSRNLHVL
notes: Expressed in an S2 system; also called whole extracellular portion of KIR3DL3; whole extracellular part of KIR3DL3; not shown: human IgG1 Fc tag
B3: KIR3DL3 D0-Ig fusion polypeptide (Fc fusion)
chain: QDKPFLSAWPGTVVSEGQHVTLQCRSRLGFNEFSLSKEDGMPVPELYNRIFRNSFLMGPVTPAHAGTYRCCSSHPHSPTGWSAPSNPVVIMVTGVHRKPSLLA
notes: Expressed in an S2 system; also called KIR3DL3 DO-Ig; KIR3DL3 D0(Q26-A128)-Ig; not shown: human IgG1 Fc tag
B4: TMIGD2 expressed on 3T3 cells (receptor, UniProt Q96BF3 23-282, looked up)
chain: LSVQQGPNLLQVRQGSQATLVCQVDQATAWERLRVKWTKDGAILCQPYITNGSLSLGVCGPQGRLSWQAPSHLTLQLDPVSLNHSGAYVCWAAVEIPELEEAEGNITRLFVDPDDPTQNRNRIASFPGFLFVLLGVGSMGVAAIVWGAWFWGRRSCQQRDSGNSPGNAFYSNVLYRPRGAPKKSEDCSGEGKDQRGQSIYSTSFPQPAPRQPHLASRPCPSPRPCPSPRPGHPVSMVRVSPRPSPTQQPRPKGFPKVGEE
notes: whole, on cells
B5: TMIGD2-mIg fusion polypeptide (Fc fusion, UniProt Q96BF3 23-150, looked up)
chain: LSVQQGPNLLQVRQGSQATLVCQVDQATAWERLRVKWTKDGAILCQPYITNGSLSLGVCGPQGRLSWQAPSHLTLQLDPVSLNHSGAYVCWAAVEIPELEEAEGNITRLFVDPDDPTQNRNRIASFPG
notes: not shown: mouse Ig part (mIg), detected with anti-mouse IgG Fc
B6: monoclonal 14F8 (antibody, V domains shown)
VH: QVQLQQSGPEVVRPGVSVKISCKGSGYTFTDYTMHWVKQSHAKSLEWIGVISTYNGNTNYNQNFEGKATMTVDKSSSTAYMELARLTSEDSAIYYCARERGGDGYYSAVDYWGQGTSVTVS
VL: SIVMTQTPKFLLVSAGDRVTITCKASQSVINDVAWYQQKPGQSPKLLIYYASNRYTGVPDRFTGSGYGTDFTFTISTVQAEDLAVYFCQQDYSSPYTFGGGTKLEIKR
B7: monoclonal 11G8 (antibody, V domains shown)
VH: QVQLQQSGPDLVRPGVSVKISCKGSGYTFTDYAMHWVKQSHAKSLEWIGVISTDSGTTNYNQKFKGKATMTVDKSSSTAYMDLARLTSEDSAIYYCARDSSYYVRFSYWGQGTLVTVSA
VL: B6 VL with A15V, I30S, Y96W
notes: Mouse hybridoma mAb; Entries include leader
B8: monoclonal 29H7 (antibody, V domains shown)
VH: QVQLQQSGPEVVRPGVSVKISCKGSGYTFTDYVMHWVKQSHGKSLEWIGVISTYNGNTNYNQKFKGKATMTVDKSSSTAYMELARLTSEDSAIYYCARERGGDGYYSAMDYWGQGTSVTVSS
VL: B6 VL with T22A, D32N, K45E, S76T
notes: Mouse hybridoma mAb; Entries include (partial) leader
B9: monoclonal 51C3 (antibody, V domains shown)
VH: EVQLQQSGPELVKPGASVKISCKTSGYTFTEYIMHWVKQSHGKSLEWIGGINPNNGGTNYNQKFKGKATLTVDTSSSIAYMELRSLTSEDSAVYYCARDDGYYVKFAYWGQGTLVTVSA
VL: B6 VL with Y96F, G100S
notes: as for B7
B10: monoclonal 37A3 (antibody, V domains shown)
VH: QVQLVETGGGLVRPGNSLKLSCVTSGFTFSNYRMHWLRQPPGKRLEWIAVITVKSDNYGANFAESVKGRFTISRDDSKSSVYLQMNRLREEDTATYYCSRGSGPGFAYWGQGTLVTVS
VL: DIVMTQSPSSLSVSAGEKVTMSCKSSQSLLNSGNQKNYLAWYQQKPGQPPKLLIYGASTRESGVPDRFTGSGSGTDFTLTISSVQAEDLAVYYCQNDHSYPFTFGSGTKLEIK
notes: Mouse hybridoma mAb
B11: monoclonal 8G7 (antibody, V domains shown)
VH: EVMLVESGGGLVKPGGSLKLSCAASGFTFSTYAMSWVRQTPEKRLEWVATILSGGNYTYYPDSVKGRFTISRDNAKNTLNLQMSSLRSEDTAMYYCVIPYGSSPFDYWGQGTTLTVS
VL: SIVMTQTPKFLLVSAGDRVTITCKASQSVSNDVAWYQQKPGQSPKLLIYYASNRYTGVPDRFTGSGYGTDFTFTISTVQAEDLAVYFCQQDYSSPWTFGGGTKLEIK
notes: Mouse hybridoma mAb; also called anti-KIR3DL3 mAb clone 8G7
B12: monoclonal 3B7 (antibody, V domains shown)
VH: QVQLQQSGPEVVRPGVSVKISCKGSGYTFSDYTMHWVKQSHAKSLEWIGVISTDNGNTNYNQKFKGKATMTVDKSSSTAYMELARLTSEDSAIYYCAREARDYGSIYALDYWGQGTSVTVS
VL: DIQMTQSPASLSASVGETVTITCRASGNIHNYLAWYQQKQGKSPQLLVYNAKTLADGVPSRFSGSGSGTQYSLKINNLQPEDFGNYYCQHFWSTPWTFGGGTKLEIKR
notes: Mouse hybridoma mAb; Entries include leader; Counted on the printed text
B13: monoclonal 30D10 (antibody, V domains shown)
VH: EVQLQQSGAELVRPGALVKLSCKASGFNFKDYFMHWVKQRPEQGLEWIGWIDPENGNTIYEPKFQGKASITADTSSNTAYLQLSSLTSEDTAVYYCARGGVGHWYFDVWGAGTTVTVS
VL: DIVLTQSPASLAVSLGQRATISCKASQSVDYDGDSYMNWYQQKPGQPPKLLIYVASNLKSGIPARFSGSGCGTDFTLNIHPVEEEDGATYYCQQTNEDPWTFGGGTKLEIK
notes: Mouse hybridoma mAb; VH entry includes leader and vector-derived residues
B14: monoclonal 26E10 (antibody, V domains shown)
VH: QAYLQQSGAELVRSGASVKMSCKASGYTFTSYNIHWVKQTPGQGLEWIGYIYPGDGVTNYNQKFKGKATLTADTSSSTAYMQISSLTSEDSAVYFCARSGNYGNYEGFAYWGQGTLVTVSA
VL: DIKMTQSPSSMYASLGERVTITCKASQDTNSYLSWFQQKPGKSPKTLIYRANRLVDGVPSRFSGSGSGQDYSLTISSLEYEDMGIYYCLQYDEFPYTFGGGTKLEIK
B15: monoclonal 31C4 (antibody, V domains shown)
VH: B14 VH with I34M, Y52F, V57G
VL: DIKMTQSPSSMYASLGERVTITCKASQDINSYLSWFQQKPGKSPKTLIYRANRLVDGVPSRFSGSGSGQDYSLTISSLEYEDMGIYYCLQYDEFPYTFGGGTKLEIKR
notes: Mouse hybridoma mAb; Entries include leader (and vector-derived residues in the VL)
B16: monoclonal 12A10 (antibody, V domains shown)
VH: B14 VH with I34M, Y52F, V57G, N101Y
VL: B15 VL with Q90H, D92A
B17: monoclonal 34B10 (antibody, V domains shown)
VH: EVKLVESGGVLVQPGGSLRLSCATSGFTFTDYYMGWVRQPPGKALEWLGFIRNKANGYTTESSASVKGRFTISRDNSQSILYLQMNTLRAEDSATYYCARDYYSGSSLDYWGQGTTLTVSS
VL: DIQMTQTTSSLSASLGDRVTISCRASQDISNYLNWYQQKPDGTVKLLIYYTSRLHSGVPSRFSGSGSGTDYSLSISNLEQEDIATYFCQQGYTLPYTFGGGTKLEIKR
notes: as for B7

In the first assay the target is T1, HHLA2 expressed on cells (3T3 cell line …). The assay can be described thus: intercellular conjugate assay (FIG. 2B).
Take B1: the binding result is reported as “binds”.

For the next assay the target is unchanged. Nature of the assay: FACS, staining of 3T3 cells expressing HHLA2 (FIG. 2C).
For B2, the binding result is “binds”.
The same measure, in the same setting: in the case of B3 it was “binds”.

Another assay has as its target T2, HHLA2 EC-Ig-Fc fusion polypeptide. Nature of the assay: FACS, staining of 3T3 cells expressing TMIGD2 (FIG. 8). The text has this:
To examine the binding of TMIGD2 to HHLA2, 3T3 cell lines expressing TMIGD2 were stained with a HHLA2 EC-Ig-Fc fusion polypeptide, a HHLA-2-IgV1-hIgG fusion polypeptide, or Ig (control) (FIG. 8).
As to B4, the binding result was “binds”.

A further assay addresses T1, HHLA2 expressed on cells (3T3 cell line …). Nature of the assay: FACS on 3T3 cells expressing HHLA2, TMIGD2-mIg (FIGS. 3A-3B). As for the experimental part:
FIG. 3A is a chart depicting mean fluorescent intensity (MFI) of 3T3 cells expressing HHLA2 that were incubated with TMIGD2-mIg fusion polypeptide or control mIgG at the indicated concentrations prior to staining with 10 μg/ml KIR3DL3-hIg followed by Allophycocyanin (APC)-conjugated anti-human IgG Fc.
FIG. 3B is a chart depicting MFI of 3T3 cells expressing HHLA2 that were incubated with KIR3DL3-hIg fusion polypeptide or control hIgG at the indicated concentrations prior to staining with 10 μg/ml TMIGD2-mIg followed by APC anti-mouse IgG Fc.
On to B5, for which the binding result is given as “binds”.

For another assay, the target named is T3, KIR3DL3 protein (antigen of the affinity determination of Table 3) (human, UniProt Q8N743 26-325, limits assumed).
T3 construct: also called human KIR3DL3
The assay can be described thus: method and antigen format not stated.
In turn, B6 returned a Kd of 0.69 nM.
The molecule B7 displayed a Kd of 0.29 nM. Compared with the last molecule, the Kd is about 2.4-fold lower.
Still for that read-out and setting: in the case of B8 it was 1.13 nM; in that of B9, 0.19 nM; in that of B10, 8.5 nM.
B11 returned a Kd of 0.11 nM.
In turn, B12 gave a dissociation constant Kd of 0.51 nM.
Still for that read-out and setting: next, B13: 0.16 nM; B14: 0.17 nM.
B15 gave a Kd of 0.72 nM. This Kd lies about 4.2-fold higher than the previous one.
Turning to B16, the Kd is 0.69 nM.
Same read-out and setting: in the case of B17 it was 1.51 nM.
